Measurements reported in PMC12358912, “NIPBL and STAG1 enable loop extrusion by providing differential DNA–cohesin affinity” (Proceedings of the National Academy of Sciences of the …, 2024).

Columns and labels:
[1] = biological target: T1, SMC1/SMC3/SCC1 cohesin Trimer (UniProt Q14683 1-1233; Q9UQE7 1-1217; O60216 1-631); assay: mass photometry; in solution; KD from evaluating the individual mass distributions of the STAG1 and cohesin Trimer mixtures directly (single-shot); conditions: both partners purified
T1 construct: SMC1 subunit of the cohesin Trimer; SMC3 subunit of the cohesin Trimer; kleisin SCC1 (also known as RAD21 or Mcd1) of the cohesin Trimer; also called the cohesin Trimer; Trimer (SMC1/SMC3/SCC); copies: + +

[2] = biological target: T1, SMC1/SMC3/SCC1 cohesin Trimer; assay: mass photometry; in solution; titration at constant cohesin Trimer (50 nM total protein, 12.6 ± 0.9 nM effective Trimer), STAG1 3 to 30 nM, six concentrations with 3 technical repeats each; incubated to equilibrium; molar fraction of the complex fitted to the Hill equation; conditions: both partners purified

T1 sequence (Q14683 whole entry, chain 1 of 3): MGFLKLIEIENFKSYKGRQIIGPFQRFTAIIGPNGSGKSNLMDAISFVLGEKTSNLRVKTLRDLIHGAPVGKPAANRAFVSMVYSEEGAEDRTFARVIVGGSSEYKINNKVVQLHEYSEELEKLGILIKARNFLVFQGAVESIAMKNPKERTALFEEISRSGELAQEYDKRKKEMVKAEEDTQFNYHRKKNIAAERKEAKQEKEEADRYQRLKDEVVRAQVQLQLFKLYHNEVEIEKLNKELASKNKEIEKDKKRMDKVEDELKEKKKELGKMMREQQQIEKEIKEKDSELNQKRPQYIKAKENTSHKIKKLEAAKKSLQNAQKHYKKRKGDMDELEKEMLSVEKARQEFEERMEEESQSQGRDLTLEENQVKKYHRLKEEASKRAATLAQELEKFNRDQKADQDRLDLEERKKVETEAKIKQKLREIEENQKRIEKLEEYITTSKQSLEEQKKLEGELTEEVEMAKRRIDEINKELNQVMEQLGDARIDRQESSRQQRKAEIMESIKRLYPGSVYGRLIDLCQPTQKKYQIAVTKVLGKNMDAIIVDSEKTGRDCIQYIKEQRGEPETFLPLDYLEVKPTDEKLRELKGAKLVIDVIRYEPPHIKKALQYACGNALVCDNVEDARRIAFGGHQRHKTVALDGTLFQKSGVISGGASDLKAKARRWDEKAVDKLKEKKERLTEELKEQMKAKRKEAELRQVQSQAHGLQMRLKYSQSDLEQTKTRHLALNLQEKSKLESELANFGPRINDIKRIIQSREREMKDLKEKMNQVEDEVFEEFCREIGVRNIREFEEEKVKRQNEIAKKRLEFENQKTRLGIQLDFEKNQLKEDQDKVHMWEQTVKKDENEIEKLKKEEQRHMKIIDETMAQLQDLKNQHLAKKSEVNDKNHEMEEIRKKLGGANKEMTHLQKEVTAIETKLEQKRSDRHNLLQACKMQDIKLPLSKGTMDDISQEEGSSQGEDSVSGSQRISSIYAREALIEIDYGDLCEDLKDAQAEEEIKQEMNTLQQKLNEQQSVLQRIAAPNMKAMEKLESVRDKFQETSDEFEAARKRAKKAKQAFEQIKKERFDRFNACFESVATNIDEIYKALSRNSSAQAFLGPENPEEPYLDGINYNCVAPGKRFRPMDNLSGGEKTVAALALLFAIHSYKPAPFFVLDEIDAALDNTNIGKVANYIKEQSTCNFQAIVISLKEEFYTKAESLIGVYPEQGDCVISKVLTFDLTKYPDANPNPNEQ
T1 sequence (Q9UQE7 whole entry, chain 2 of 3): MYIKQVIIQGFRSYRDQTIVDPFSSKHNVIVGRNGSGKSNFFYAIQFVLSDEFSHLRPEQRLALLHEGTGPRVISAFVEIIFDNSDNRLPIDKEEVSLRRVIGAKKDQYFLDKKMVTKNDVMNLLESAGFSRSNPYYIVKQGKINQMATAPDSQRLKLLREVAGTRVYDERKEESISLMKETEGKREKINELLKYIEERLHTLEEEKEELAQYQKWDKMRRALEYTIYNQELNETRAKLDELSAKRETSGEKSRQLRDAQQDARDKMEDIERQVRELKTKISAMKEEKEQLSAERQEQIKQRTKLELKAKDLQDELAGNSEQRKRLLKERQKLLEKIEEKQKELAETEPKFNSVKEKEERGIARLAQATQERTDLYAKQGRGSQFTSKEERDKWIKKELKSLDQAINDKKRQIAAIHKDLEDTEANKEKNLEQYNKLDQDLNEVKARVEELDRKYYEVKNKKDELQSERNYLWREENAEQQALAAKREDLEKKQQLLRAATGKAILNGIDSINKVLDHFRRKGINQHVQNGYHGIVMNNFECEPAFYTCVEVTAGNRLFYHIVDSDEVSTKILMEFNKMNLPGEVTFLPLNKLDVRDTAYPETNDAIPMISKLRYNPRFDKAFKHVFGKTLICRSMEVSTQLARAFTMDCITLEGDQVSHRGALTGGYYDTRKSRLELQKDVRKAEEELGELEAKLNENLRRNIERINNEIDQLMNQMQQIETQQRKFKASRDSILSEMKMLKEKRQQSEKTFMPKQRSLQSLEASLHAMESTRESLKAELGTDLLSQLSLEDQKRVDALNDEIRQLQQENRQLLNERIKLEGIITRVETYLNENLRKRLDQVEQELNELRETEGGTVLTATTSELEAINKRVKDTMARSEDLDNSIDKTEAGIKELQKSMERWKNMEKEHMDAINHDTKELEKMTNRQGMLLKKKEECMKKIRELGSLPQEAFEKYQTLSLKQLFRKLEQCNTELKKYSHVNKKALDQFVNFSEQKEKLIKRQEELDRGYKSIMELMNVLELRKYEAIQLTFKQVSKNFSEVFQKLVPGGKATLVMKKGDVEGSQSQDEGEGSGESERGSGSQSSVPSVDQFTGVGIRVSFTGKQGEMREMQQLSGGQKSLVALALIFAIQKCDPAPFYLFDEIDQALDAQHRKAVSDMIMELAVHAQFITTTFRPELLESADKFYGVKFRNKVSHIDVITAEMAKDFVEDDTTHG
T1 sequence (O60216 whole entry, chain 3 of 3): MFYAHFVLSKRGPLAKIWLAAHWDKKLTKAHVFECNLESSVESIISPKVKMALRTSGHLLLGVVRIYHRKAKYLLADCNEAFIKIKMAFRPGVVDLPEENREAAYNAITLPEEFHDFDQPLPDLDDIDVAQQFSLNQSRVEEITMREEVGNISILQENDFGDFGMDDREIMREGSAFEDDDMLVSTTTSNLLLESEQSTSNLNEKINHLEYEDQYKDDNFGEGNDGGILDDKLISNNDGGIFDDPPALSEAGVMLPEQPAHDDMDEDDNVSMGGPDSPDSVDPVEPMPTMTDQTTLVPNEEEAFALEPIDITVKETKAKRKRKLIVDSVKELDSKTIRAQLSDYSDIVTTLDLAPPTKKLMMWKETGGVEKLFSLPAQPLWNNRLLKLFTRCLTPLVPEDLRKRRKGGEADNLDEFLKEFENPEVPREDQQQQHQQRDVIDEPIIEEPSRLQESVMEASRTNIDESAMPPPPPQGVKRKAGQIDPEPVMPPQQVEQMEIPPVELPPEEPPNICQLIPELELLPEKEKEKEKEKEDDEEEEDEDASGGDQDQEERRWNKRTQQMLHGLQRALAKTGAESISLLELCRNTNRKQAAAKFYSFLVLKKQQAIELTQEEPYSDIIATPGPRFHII

Kd [1]: 5.4 ± 1.7 nM
Kd [2]: 6.2 ± 0.7 nM
B1: STAG1 (natural protein, human, UniProt Q8WVM7 1-1258, looked up)
chain: MITSELPVLQDSTNETTAHSDAGSELEETEVKGKRKRGRPGRPPSTNKKPRKSPGEKSRIEAGIRGAGRGRANGHPQQNGEGEPVTLFEVVKLGKSAMQSVVDDWIESYKQDRDIALLDLINFFIQCSGCRGTVRIEMFRNMQNAEIIRKMTEEFDEDSGDYPLTMPGPQWKKFRSNFCEFIGVLIRQCQYSIIYDEYMMDTVISLLTGLSDSQVRAFRHTSTLAAMKLMTALVNVALNLSIHQDNTQRQYEAERNKMIGKRANERLELLLQKRKELQENQDEIENMMNSIFKGIFVHRYRDAIAEIRAICIEEIGVWMKMYSDAFLNDSYLKYVGWTLHDRQGEVRLKCLKALQSLYTNRELFPKLELFTNRFKDRIVSMTLDKEYDVAVEAIRLVTLILHGSEEALSNEDCENVYHLVYSAHRPVAVAAGEFLHKKLFSRHDPQAEEALAKRRGRNSPNGNLIRMLVLFFLESELHEHAAYLVDSLWESSQELLKDWECMTELLLEEPVQGEEAMSDRQESALIELMVCTIRQAAEAHPPVGRGTGKRVLTAKERKTQIDDRNKLTEHFIITLPMLLSKYSADAEKVANLLQIPQYFDLEIYSTGRMEKHLDALLKQIKFVVEKHVESDVLEACSKTYSILCSEEYTIQNRVDIARSQLIDEFVDRFNHSVEDLLQEGEEADDDDIYNVLSTLKRLTSFHNAHDLTKWDLFGNCYRLLKTGIEHGAMPEQIVVQALQCSHYSILWQLVKITDGSPSKEDLLVLRKTVKSFLAVCQQCLSNVNTPVKEQAFMLLCDLLMIFSHQLMTGGREGLQPLVFNPDTGLQSELLSFVMDHVFIDQDEENQSMEGDEEDEANKIEALHKRRNLLAAFSKLIIYDIVDMHAAADIFKHYMKYYNDYGDIIKETLSKTRQIDKIQCAKTLILSLQQLFNELVQEQGPNLDRTSAHVSGIKELARRFALTFGLDQIKTREAVATLHKDGIEFAFKYQNQKGQEYPPPNLAFLEVLSEFSSKLLRQDKKTVHSYLEKFLTEQMMERREDVWLPLISYRNSLVTGGEDDRMSVNSGSSSSKTSSVRNKKGRPPLHKKRVEDESLDNTWLNRTDTMIQTPGPLPAPQLTSTVLRENSRPMGDQIQEPESEHGSEPDFLHNPQMQISWLGQPKLEDLNRKDRTGMNYMKVRTGVRHAVRGLMEEDAEPIFEDVMMSSRSQLEDMNEEFEDTMVIDLPPSRNRRERAELRPDFFDSAAIIEDDSGFGMPMF
notes: human STAG1, a HAWK subunit of cohesin; measured at 148 ± 2 kDa by mass photometry; also called Scc3
